According to article PMC5665922:
Where “and” joins values, the source holds several entries; their conditions need not be identical. Equal entries are not always repeated.

Experiments:
[1] = molecular target: Histidine-tagged INT-interacting MVP domains (His-iMVP), major vault protein domains 3 to 5; assay: SPR; Biacore 3000, His-iMVP amine-coupled to CM5 (410, 1860 or 1240 RU), His-INT or variant injected, 25 °C, 50 mM PBS, 150 mM NaCl, pH 7.4; 1-to-1 Langmuir fit; apparent constants
[2] = molecular target: Histidine-tagged INT-interacting MVP domains (His-iMVP), major vault protein domains 3 to 5; assay: SEC; His-iMVP and His-INT mixed at equimolar ratio (70 μM), overnight at 4 °C, Superdex 75 10/300 GL; band densities of peak fractions on SDS-PAGE

Kd [1] [nM] | T1/2 [1] [min] | koff [1] [s⁻¹] | kon [1] [M⁻¹ s⁻¹] | stoichiometry N [1] | stoichiometry N [2] | Binder
262 | 13.9 | 0.0006 | 2280 | 1 | 1 and 2 | Histidine-tagged vault-interacting domain of vault poly(ADP-ribose)-polymerase (His-INT) (domain or fragment) CIQHWQDAVPWTELLSLQTEDGFWKLTPELGLILNLNTNGLHSFLKQKGIQSLGVKGRECLLDLIATMLVLQFIRTRLEKEGIVFKSLMKMDDASISRNIPWAFEAIKQASEWVRRTEGQYPSICPRLELGNDWDSATKQLLGLQPISTVSPLHRVLHYSQG
1800 | 9.4 | 0.00089 | 485 | 1 |  | His-INTΔC15 (His-INT with 15 amino acids deleted at the C terminus) (domain or fragment) CIQHWQDAVPWTELLSLQTEDGFWKLTPELGLILNLNTNGLHSFLKQKGIQSLGVKGRECLLDLIATMLVLQFIRTRLEKEGIVFKSLMKMDDASISRNIPWAFEAIKQASEWVRRTEGQYPSICPRLELGNDWDSATKQLLGLQPI
